Drawing on patent publication US20230408517A1 (BIO TECHNE, published 2023), this text covers percent blocking for seven molecules.

Read-outs that look alike come from different tables or passages of the source.

Common to all, as to assay: flow cytometry, blocking of binding to hACE-2 cells
Assay [1] concerns the target T1, recombinant SARS-CoV-2 spike S1 RBD (R319-F541), C-terminal 6-His (SARS-CoV-2, UniProt P0DTC2 319-541).
In assay [2] the target is rSARS2 RBD aa319-541, N439K, C-His (SARS-CoV-2, UniProt P0DTC2 319-541).
Assay [3] addresses rSARS2-B.1.1.7 S aa16-1211 4x aa mut., C-His (SARS-CoV-2, UniProt P0DTC2 16-1211).
For assay [4], the target named is rSARS2-B.1.617.2 S aa16-1211 10+4x aa mut., C-His (SARS-CoV-2, UniProt P0DTC2 16-1211).
Assay [5] deals with IN v2 variant RBD (R319-F541 with L452R, T478K) (SARS-CoV-2, UniProt P0DTC2 319-541).
Assay [6] deals with BR P.1 variant RBD (R319-F541 with K417T, E484K, N501Y), C-terminal 6-His (SARS-CoV-2, UniProt P0DTC2 319-541).
The target of assay [7] is rSARS2-B.1.1.7 S aa16-1211 2x aa mut., C-His (SARS-CoV-2, UniProt P0DTC2 16-1211).
Assay [8] addresses T1, recombinant SARS-CoV-2 spike S1 RBD …. This is another data set of the same source.

B1: 1035716 (antibody, V domains shown)
VH: EVLLQQSGPELVKPGASVKIPCKASGYTFTDYNMDWVKQSHGKSLEWIGDINPNNGGTIYNQKFKGKATLTVDKSSSTAYMELRSLTSEDTAVYYCAREGYGNYFDYWGQGTTLTVSS
VL: DILLTQSPAILSVSPGERVSFSCRASQSIGTSIHWYQQRTNGSPRLLIKYASESISGIPSRFSGSGSGTDYTLSINSVESEDIADYYCQQSYSWPTTFGAGTKLELK
As to B1, the percent blocking in assay [1] turned out to be 94.6%; in assay [2] it was 96.2%; in assay [3] it was 81.5%; in assay [4] it was 89.3%; in assay [5], 96.5%; in assay [6] it was 95%. The percent blocking in assay [7] was found to be 94.4%; in assay [8], 94.6%.

B2: 1035433 (antibody, V domains shown)
VH: QVQLQQSGPQLVRPGASVKISCKASGYSFTIYWMHWVQQRPGQGLEWIGMIDPSDSETRLNQKFKDKATLTVDKSSSTAYMQLSSPTSEDSAVYYCARRGDYNFDYWGQGTTLTVSS
VL: DIVMTQAAPSVPATPGESVSISCRSSKSLLHSNGNTYLYWFLQRPGQSPQLLIFRMSNLASGVPDRFSGSGSGTAFTLRISRVEAEDVGVYYCMQHLEYPYTFGGGTKLEIK
In the case of B2, the percent blocking in assay [1] amounted to 93.7%; in assay [2], 0.9%; in assay [3], 23.5%; in assay [4], 93.8%; in assay [5], 18.4%; in assay [6], 0%. In addition, the figures for the percent blocking in assay [7] and in assay [8] were 82% and 93.7%, respectively.

B3: 1035211 (antibody, V domains shown)
VH: QVQLQQSGAELARPGASVKMSCKASGYTFTNYTMHWVKQRPGQGLEWIGYINPSSGYTNYNQKFKDKATLTADKSSSTAYMQLSSLTSEDSAVYYCARRNPLYAMDYWGQGTSVTVSS
VL: DIKMTQSPSSMYASLGERVTITCKASQDINSYLNWFQQKPGKSPKTLIYRANRLVDGVPSRFSGSGSGQDYSLTISSLEFEDMGIYYCLQYDEFPYTFGGGTKLEIK
Take B3: the percent blocking in assay [1] was 98.7%; in assay [2], 18.1%; in assay [3], 72.4%; in assay [4], 0%; in assay [5], 1.7%; in assay [6] it was 0%. Also, the results for the percent blocking in assay [7] and in assay [8] were 76.3% and 98.7%, respectively.

B4: 1035414 (antibody, V domains shown)
VH: QVQLKQSGAELVRPGASVKLSCKTSGYIFTSYWIHWVKQRSGQGLEWIARIYPGTGNTYYNEKFKGKATLTADKSSTTAYMQLSSLKSEDSAVYFCARGEDNLYYYAMDYWGQGTSVTVSS
VL: NIVLTQSPASLAVSLGQRATISCRASESVDSYGTSFMHWYQQKPGQPPKLLIYLASNLESGVPASFSGSGSRTDFTLTIDPVEADDAATYYCQQNNEDPWTFGGGTKLEIK
Consider B4, for which the percent blocking in assay [1] came to 85.2%; in assay [2], 43%; in assay [4], 73.5%; in assay [5] it was 37.4%; in assay [6], 0.4%; in assay [7] it was 17.8%. In assay [8], the percent blocking came out at 85.2%.

B5: 1035752 (antibody, V domains shown)
VH: QVQLQQPGAELVRPGASVKMSCKASGYTFTSHSIHWVKQTPGQGLEWIGAVYPGNGDTSYYQKFKGKATLTADKSSSTAYMHLSSLTSEDSAVYYCARDGYSDYYAMDCWGQGTSVTVSS
VL: DIVMTQSQKFMSTSVGDRVSVTCKASQNVGTNVAWYQQKPGQSPKALIYSASYRYSGVPDRFTGSGSGTDFTLTINNVQSEDLAEYFCQQYNRYPWTFGGGTKLEIK
Turning to B5, the percent blocking is 94.5% in assay [1]; 53% in assay [2]; 74.4% in assay [3]; 0% in assay [4]; 0.8% in assay [5]; 77.2% in assay [6]. Further, the percent blocking came to 81.4% in assay [7] and 94.5% in assay [8].

B6: 1035755 (antibody, V domains shown)
VH: EVQLQQSGAELVRPGALVKLSCKASGFNIKDYYMHWVKQRPEQGLEWIGWIDPENGNSIYDPKFQGKASITADTSSNTAYLQLSSLTSEDTAVYYCATPSATSYFDYWGQGTTLTVSS
VL: QIVLTQSPAIMSASPGEKVTISCSASSSVSYMYWYQQKPGSSPKPWIYRTSNLASGVPARFSGSGSGTSYSLTISSMEAEDAATYYCQQYHSYPYMYTFGGGTKLEIK
B6: the percent blocking in assay [1] is 94.1%; in assay [2], 25.2%; in assay [3] it was 35.8%; in assay [4], 0%; in assay [5], 0.9%; in assay [6], 14.9%. In addition, the percent blocking was 12% in assay [7] and 94.1% in assay [8].

B7: 1035423 (antibody, V domains shown)
VH: EVKLEESGGGLVQPGGSMKLSCTASGFTFSDAWMDWVRQSPEKGLEWVAEIRNKANNHATYYAESVKGRFTISRDDSKSSVYLQMNSLRAEDTGIYYCILFITYAMDYWGQGTSVTVSS
VL: DIVLTQSQKFMSTSVGDRVSITCKASQNVRTAVAWYQQKPGQSPKALIYLASNRHTGVPDRFTGSGSGTDFTLTISNVQSEDLADYFCLQHWNYPLTFGSGTKLELK
In the case of B7, the percent blocking came out at 94.1% in assay [1]; 34.6% in assay [2]; 75.9% in assay [3]; 89.5% in assay [4]; 81.4% in assay [5]; 22% in assay [6]. Also, the percent blocking in assay [7] is 71.1%; in assay [8], 94.1%.
